Assays:
[1] = biological target: the molecule itself; experiment: atomic force microscopy; 150 nM protein in 500 mM KCl deposited on freshly cleaved mica, incubated 48 hrs, in situ imaging in tapping mode
[2] = biological target: the molecule itself; experiment: rotary shadowing electron microscopy; rmOtolin-1 adsorbed on mica, rapid freezing, freeze-drying, rotary shadowing

Row | Protein | binding result [1] | binding result [2]
1 | recombinant histidine tagged human Otolin-1 (natural protein, UniProt A6NHN0 24-477, looked up, Otolin-1, human; OmicsLink Expression-Ready Clone (pReceiver-M77 plasmid, GeneCopoeia) coding for human Otolin-1 with a C-terminal His tag; secreted protein; also called rhOtolin-1; human Otolin-1-His; source: HEK293-F (Freestyle Max 293), transfected; secreted into medium, purified (HisTrap); not shown: His tag, C-terminal, kept) KTTPHTKFTKKSEEREMPKGLKPSSGPPPEEEETLFTEMAEMAEPITKPSALDSVFGTATLSPFENFTLDPADFFLNCCDCCSPVPGQKGEPGETGQPGPKGEAGNLGIPGPPGVVGPQGPRGYKGEKGLKGERGDQGVPGYPGKPGAQGEPGPKGDKGNIGLGGVKGQKGSKGDTCGNCTKGEKGDQGAMGSPGLHGGPGAKGEKGEMGEKGEMGDKGCCGDSGERGGKGQKGEGGMKGEKGSKGDSGMEGKSGRNGLPGAKGDPGIKGEKGELGPPGLLGPTGPKGDIGNKGVRGPTGKKGSRGFKGSKGELARVPRSAFSAGLSKPFPPPNIPIKFEKILYNDQGNYSPVTGKFNCSIPGTYVFSYHITVRGRPARISLVAQNKKQFKSRETLYGQEIDQASLLVILKLSAGDQVWLEVSKDWNGVYVSAEDDSIFTGFLLYPEETSGISP | binds | 
2 | recombinant mouse Otolin-1-Flag (natural protein, UniProt Q4ZJM7 24-482, looked up, Otolin-1, mouse; cDNA amplified by RT-PCR from E16.5 mouse otocysts with primers from the start ATG to the last codon before the stop (FLAG added before the stop codon); secreted protein; The introduction calls rmOtolin-1 histidine tagged, the methods and results Flag tagged; also called rmOtolin-1; Flag tagged recombinant mouse Otolin-1; source: HEK293-T, stably transfected; not shown: FLAG, …) KTTPYTKFTKKSEGKEMLKGLKPSSGFFLDGEETVHTETAAMAEPTTGSPALAMAESTAGPSASATTRLLPFESFSLDTTGFVLNCCHCCSFVTGQKGEPGKMGKQGPKGETGDTGSPGHPGTTGPQGPKGQKGEKGLKGDRGDQGAGGIPGYPGKPGEQGALGPKGDKGTIGPAGTKGQKGSKGELCGNGTKGEKGDPGASGAHGFIGEPGAKGEKGGVGEKGYRGDLGERGEKGQKGEKGMEGEKGSRGDVGSEGKRGSDGLPGLRGDSGPKGEKGEIGSPGFTGPAGPKGELGSKGVRGPTGKKGSRGVKGSKGEATQVPQSAFSALLSKPFPPPNVPIKFDKILSNDQGDYSPVTGKFNCSVPGTYIFSYHVTVRGRPARISLVARNRKQFKSRETLYGQQVDQASLLLILKLSAGDQVWLEVSKDWNGLYVGPEDDSIFSGFLLYPEETFSKSP |  | binds
